According to publication PMC11417369, “DNA sequence and chromatin differentiate sequence-specific transcription factor binding in the human malaria parasite Plasmodium falciparum”:

Assays:
HDP1 homeodomain-like = biological target: T1, HDP1 homeodomain-like (Plasmodium falciparum, UniProt Q8IKH4 2990-3078); assay: gcPBM; about 25 ug protein; PBS, 1% milk, 0.2 mg/ml BSA, salmon testes DNA, 0.03% Triton X-100; conditions: tags: N-terminal GST (pGEX-4T-1), kept; chain copies: 2; label: surface-attached array probe
T1 sequence: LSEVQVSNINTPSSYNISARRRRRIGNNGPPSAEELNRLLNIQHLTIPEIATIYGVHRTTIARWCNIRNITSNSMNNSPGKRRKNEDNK

AP2-I D3 = AP2-I D3 (Plasmodium falciparum, UniProt Q8IJW6 910-1027); assay: as above; conditions: tags: N-terminal GST (pGEX-4T-1), kept; label: surface-attached array probe

B1: GTGCAC_negctrl_site13 (dsDNA)
DNA 1: AAAAAAAAAAATATATTAAAATAAAAAATATTAACA
DNA 2: TGTTAATATTTTTTATTTTAATATATTTTTTTTTTT
In the case of B1, the binding signal (HDP1 homeodomain-like) is reported as 6.05 ln median PBM intensity, better of two orientations and the binding signal (AP2-I D3) is reported as 6.95 ln median PBM intensity, better of two orientations.

B2: GTGCAC_negctrl_site298 (dsDNA)
DNA 1: TTTTAACAAAACTAAATAATCATATATATAAGATAT
DNA 2: ATATCTTATATATATGATTATTTAGTTTTGTTAAAA
B2 was tested, and the binding signal (HDP1 homeodomain-like) was 6.21 ln median PBM intensity, better of two orientations and the binding signal (AP2-I D3) was 6.97 ln median PBM intensity, better of two orientations.

B3: GTGCAC_negctrl_site245 (dsDNA)
DNA 1: TTTTATATCTAGTTTATATTTCTTAAATAAATAAAT
DNA 2: ATTTATTTATTTAAGAAATATAAACTAGATATAAAA
B3 was tested, and the binding signal (HDP1 homeodomain-like) was 6.07 ln median PBM intensity, better of two orientations and the binding signal (AP2-I D3) was 7.05 ln median PBM intensity, better of two orientations.

B4: GTGCAC_negctrl_site155 (dsDNA)
DNA 1: AAATTTTTTAATTTTTCTCATTTAATTTAAAAATTA
DNA 2: TAATTTTTAAATTAAATGAGAAAAATTAAAAAATTT
B4 was tested, and the binding signal (HDP1 homeodomain-like) was 5.71 ln median PBM intensity, better of two orientations and the binding signal (AP2-I D3) was 7.03 ln median PBM intensity, better of two orientations.

B5: GTGCAC_negctrl_site641 (dsDNA)
DNA 1: TTTTCTTGACCTATTATTCTTCTCATAGTATAATAT
DNA 2: ATATTATACTATGAGAAGAATAATAGGTCAAGAAAA
In the case of B5, the binding signal (HDP1 homeodomain-like) is reported as 6.18 ln median PBM intensity, better of two orientations and the binding signal (AP2-I D3) is reported as 7.08 ln median PBM intensity, better of two orientations.

B6: GTGCAC_negctrl_site177 (dsDNA)
DNA 1: TCACAAAAAGAACATTGATATTATTATAAAATCGTC
DNA 2: GACGATTTTATAATAATATCAATGTTCTTTTTGTGA
For B6, the binding signal (HDP1 homeodomain-like) was 6.14 ln median PBM intensity, better of two orientations and the binding signal (AP2-I D3) was 7 ln median PBM intensity, better of two orientations.

B7: GTGCAC_negctrl_site614 (dsDNA)
DNA 1: TATTTAGACATAACAAATAGACTAACAAAAGATTTA
DNA 2: TAAATCTTTTGTTAGTCTATTTGTTATGTCTAAATA
For B7, the binding signal (HDP1 homeodomain-like) was 6.13 ln median PBM intensity, better of two orientations and the binding signal (AP2-I D3) was 6.94 ln median PBM intensity, better of two orientations.

B8: GTGCAC_negctrl_site257 (dsDNA)
DNA 1: TGCAAAAAAAAAAAAAAAAAATATATGGAAATATAT
DNA 2: ATATATTTCCATATATTTTTTTTTTTTTTTTTTGCA
With B8 the binding signal (HDP1 homeodomain-like) was 6.13 ln median PBM intensity, better of two orientations and the binding signal (AP2-I D3) was 6.92 ln median PBM intensity, better of two orientations.

B9: GTGCAC_negctrl_site472 (dsDNA)
DNA 1: TATTTAAAATAATAACAAAATTAACATAAATATATA
DNA 2: TATATATTTATGTTAATTTTGTTATTATTTTAAATA
For B9, the binding signal (HDP1 homeodomain-like) was 6.24 ln median PBM intensity, better of two orientations and the binding signal (AP2-I D3) was 7.1 ln median PBM intensity, better of two orientations.

B10: GTGCAC_negctrl_site39 (dsDNA)
DNA 1: AAACAGCATGGTATACCTATAAAATATATATACTAA
DNA 2: TTAGTATATATATTTTATAGGTATACCATGCTGTTT
B10 was tested, and the binding signal (HDP1 homeodomain-like) was 6.18 ln median PBM intensity, better of two orientations and the binding signal (AP2-I D3) was 7.07 ln median PBM intensity, better of two orientations.

B11: GTGCAC_negctrl_site601 (dsDNA)
DNA 1: TAAGCCAAGGGATAAATAAAATAACAAAATGAAATC
DNA 2: GATTTCATTTTGTTATTTTATTTATCCCTTGGCTTA
In the case of B11, the binding signal (HDP1 homeodomain-like) is reported as 6.27 ln median PBM intensity, better of two orientations and the binding signal (AP2-I D3) is reported as 7.02 ln median PBM intensity, better of two orientations.

B12: GTGCAC_negctrl_site154 (dsDNA)
DNA 1: AATAGTATTCACAAAGTTTTATATAATAAATATAAA
DNA 2: TTTATATTTATTATATAAAACTTTGTGAATACTATT
B12 was tested, and the binding signal (HDP1 homeodomain-like) was 5.94 ln median PBM intensity, better of two orientations and the binding signal (AP2-I D3) was 6.96 ln median PBM intensity, better of two orientations.

B13: GTGCAC_negctrl_site305 (dsDNA)
DNA 1: ATTTATATAAAATTAAAATAATACAAATTTATTCAT
DNA 2: ATGAATAAATTTGTATTATTTTAATTTTATATAAAT
With B13 the binding signal (HDP1 homeodomain-like) was 6.1 ln median PBM intensity, better of two orientations and the binding signal (AP2-I D3) was 7 ln median PBM intensity, better of two orientations.

B14: GTGCAC_negctrl_site27 (dsDNA)
DNA 1: ACATATGTATGAATATCAAAAAATCCCTATTTAATG
DNA 2: CATTAAATAGGGATTTTTTGATATTCATACATATGT
B14 was tested, and the binding signal (HDP1 homeodomain-like) was 6.3 ln median PBM intensity, better of two orientations and the binding signal (AP2-I D3) was 6.97 ln median PBM intensity, better of two orientations.

B15: GTGCAC_negctrl_site175 (dsDNA)
DNA 1: AAAATGTATGGAATGCTCTTTTTTAAGTATTATATA
DNA 2: TATATAATACTTAAAAAAGAGCATTCCATACATTTT
B15 was tested, and the binding signal (HDP1 homeodomain-like) was 6.2 ln median PBM intensity, better of two orientations and the binding signal (AP2-I D3) was 6.96 ln median PBM intensity, better of two orientations.

B16: GTGCAC_negctrl_site122 (dsDNA)
DNA 1: ATCTTAGTTGAAATATAGAATTTATAATAAAAGTTA
DNA 2: TAACTTTTATTATAAATTCTATATTTCAACTAAGAT
With B16 the binding signal (HDP1 homeodomain-like) was 6.01 ln median PBM intensity, better of two orientations and the binding signal (AP2-I D3) was 7.07 ln median PBM intensity, better of two orientations.
